From patent publication US20110135636A1 (SYMPHOGEN A S, published 2011)
Each block holds one binder with its values, some of them ahead of it.

Key:
[1] = target: T1, full length human EGFR expressed on the cell surface (human, UniProt P00533 25-1210); assay: cell ELISA, Fab on A431-NS cells
T1 construct: whole, on cells; also called EGFR on A431-NS cells; EGFR on HN5 cells
Method: (§1) Cell ELISA: The relative binding affinities defined as the molar concentration giving the half maximal OD (ED50) were determined by antibody titrations on A431-NS cells. Briefly, 10,000 A431-NS cells were grown in 96 well ELISA plates containing DMEM with added 0.5% FCS and 1% P/S at 37° C., 5% CO₂ overnight. […] Then 50 μl of a secondary Goat-anti-Human (Fab specific) HRP conjugate diluted 1:5000 in DMEM containing 1% BSA was added and incubated on ice for 30 min. Finally wells were washed four times with PBS and plates developed by adding 50 μl/well TMB Plus substrate and read at 620 nm every 5-15-30 min. After incubation with substrate the reaction was stopped by addition of 1 M H₂SO₄ and absorbance read at 450 nm. The functional affinity expressed as ED50 values were calculated by subtraction of the average background binding with secondary reagent only, followed by normalization of the binding curves by plotting % maximal binding relative to each antibody tested.

[2] = target: T2, EGFR-Fc (recombinant EGFR ECD-Fc chimera, R&D Systems 344-ER) (human, UniProt P00533 25-645); assay: SPR (BIAcore 2000); Fab over immobilized EGFR ECD-Fc
T2 construct: extracellular domain; Bought; also called immobilized Human EGFR ECD; immobilized receptor; not shown: human IgG Fc

[3] = target: T1, full length human EGFR expressed on the …; assay: cell ELISA, Fab titrated on paraformaldehyde-fixed A431-NS cells; given as ED50
Method: as §1

[4] = target: T1, full length human EGFR expressed on the …; assay: cell ELISA, Fab titrated on paraformaldehyde-fixed A431-NS cells
Method: as §1

[5] = target: T3, Cynomolgus EGFR extracellular domain (Cynomolgus monkey (Macaca fascicularis), UniProt P55245 25-645 (rhesus entry)); assay: ELISA on cynomolgus EGFR ECD (Example 10)
T3 construct: Cloned without signal peptide; also called Cynomolgus rEGFR ECD; Cynomolgus EGFR ECD
Method: To verify that tested Anti-EGFR antibodies bound equally well to both Human and Cynomolgus EGFR ECD and accordingly warranting toxicology studies in Cynomolgus monkeys, serial four fold dilutions of antibodies beginning from 1 μg/ml were tested by ELISA for binding to recombinant Human and Cynomolgus EGFR ECD proteins. […] ELISA wells were coated with 50 μl/well of full length EGFR at a concentration of 1 μg/ml in PBS overnight at 4° C. The next morning wells were washed twice with PBS-T and blocked for one hour with 100 μl PBS-T-1% BSA at room temperature, followed by wash twice in PBS-T. Next 50 μl of serially diluted Anti-EGFR antibodies and control antibodies were added to wells and incubated for one hour at room temperature. After antibody incubation wells were washed five times with PBS-T, followed by incubation with 50 μl/well Streptavidin-HRP secondary reagent diluted 1:3000 in blocking buffer and incubation at room temperature for 30 min. Finally wells were washed five times with PBS-T and plates were developed by adding 50 μL/well TMB substrate and incubated at room temperature. After incubation the reaction was stopped by addition of 1 M H₂SO₄; 100 μl/well and plates were read at OD 450 nm.

[6] = target: T4, recombinant human EGFR extracellular domain with 6xHis (human, UniProt P00533 25-645); assay: SPR (Biacore 3000) on captured 6xHis EGFR ECD
T4 construct: In-house produced; also called 6xHis EGFR ECD; soluble human EGFR ECD; not shown: 6xHis tag

[7] = target: T2, EGFR-Fc (recombinant EGFR ECD-Fc …); assay: SPR (BIAcore 2000); Fab over immobilized EGFR ECD-Fc; Scatchard analysis
[8] = target: T1, full length human EGFR expressed on the …; assay: cell ELISA, Fab titrated on paraformaldehyde-fixed A431-NS cells, against SPR
Method: as §1

[9] = target: T5, wild type full length EGFR purified from A431 cells (human, UniProt P00533 25-1210); assay: indirect ELISA, Fab on coated purified full length EGFR
T5 construct: mature; Bought; coated on ELISA wells; also called full length EGFR receptor antigen; Sigma E3641

[10] = target: T2, EGFR-Fc (recombinant EGFR ECD-Fc …); assay: SPR (BIAcore 2000); Fab over immobilized EGFR ECD-Fc against IgG with soluble EGFR ECD

EC50 (read off the curve) [1]: ~2 nM
Kd [2]: 25.6 nM
koff [2]: 0.0049 s⁻¹
kon [2]: 190000 M⁻¹ s⁻¹
t1/2 [2]: 2.3 min
EC50 [3]: 2 nM
Log ED50 [4]: 0.3
B1: Fab 1024 (Fab, V domains shown, not shown: small tags and cut ends)
VH: QVQLQQPGAELVEPGGSVKLSCKASGYTFTSHWMHWVKQRPGQGLEWIGEINPSSGRNNYNEKFKSKATLTVDKSSSTAYMQFSSLTSEDSAVYYCVRYYGYDEAMDYWGQGTSVTVS
VL: DIVMTQAAFSNPVTLGTSASISCRSSKSLLHSNGITYLYWYLQKPGQSPQLLIYQMSNLASGVPDRFSSSGSGTDFTLRISRVEAEDVGVYYCAQNLELPYTFGGGTKLEIKR

binding result [5]: no binding
binding result [6]: no binding (tested: 40 ug/ml)
B2: antibody 1229 (antibody, human IgG1, kappa, V domains shown)
VH: QVQLKESGPGLVAPSQSLSITCSVSGFSLTIYGVHWVRQPPGKGLEWLGVMWAGGNTDYNSALMSRLNISKDNSKSQVFLKVNSLQTDDTAMYYCTRDPDGYYVGWFFDVWGAGTTVTVSS
VL: DIVMTQSHKFMSTSVGDRVSITCKASQDVTNAVAWYQQKPGQSPKLLIYWASIRHTGVPDRFTGSRSGTDYTLTINSVQAEDLALYYCQQHYNTPLTFGAGTKLEIKR
notes: Chimeric IgG1 kappa

Kd [7]: 150 nM
fold lower monovalent functional affinity value on cells than tested with BIAcore [8]: ≥ 15 fold
t1/2 [2]: 0.2 min
EC50 [3]: 9.9 nM
Log ED50 [4]: 1
B3: Fab 992 (Fab, V domains shown, not shown: small tags and cut ends)
VH: EVQLQQPGSELVRPGASVKLSCKASGYTFTSYWMHWVKQRPGQGLEWIGNIYPGSRSTNYDEKFKSKATLTVDTSSSTAYMQLSSLTSEDSAVYYCTRNGDYYVSSGDAMDYWGQGTSVTVS
VL: DIQMTQTTSSLSASLGDRVTISCRTSQDIGNYLNWYQQKPDGTVKLLIYYTSRLHSGVPSRFSGSGSGTDFSLTINNVEQEDVATYFCQHYNTVPPTFGGGTKLEIKR

EC50 (read off the curve) [1]: ~1 nM
EC50 (read off the curve) [9]: ~4 nM
Kd [2]: 2.3 nM
koff [2]: 0.0002 s⁻¹
kon [2]: 87000 M⁻¹ s⁻¹
t1/2 [2]: 57.5 min
EC50 [3]: 1.8 nM
Log ED50 [4]: 0.27
fold higher affinity against immobilized antigen than against soluble receptor [10]: 10 fold
B4: Fab 1030 (Fab, V domains shown, not shown: small tags and cut ends)
VH: EVQLVESGGGLVKPGGSLKLSCAASGFTFSSYALSWVRQTPERRLEWVASISGVGSTYFPDSVKGRFTMSRDNARNILYLQMSSLRSEDTAMYYCARGSDGYFYAMDYWGQGTSVTVS
VL: DIVLTQSPASLAVSLGQRATISCRASKSVSTSGYSFMHWYQLKPGQPPKLLIYLASNLESGVPARFSGSGSGTDFTLNIHPVEEEDAATYYCQHSREFPLTFGGGTKLEIKR
